{
  "source": "patent US20130217572A1",
  "about": "“SPECIFIC DELIVERY OF AGROCHEMICALS” (VRIJE UNIVERSITEIT BRUSSEL, priority 2010, published 2013)",
  "key": {"potato lectin (Sigma) [1]": {"molecular_target": "T1, potato lectin (Sigma) (potato, UniProt Q9S8M0 23-323)", "T1 construct": "Bought glycoprotein, coated on ELISA plates", "T1 sequence (looked up)": "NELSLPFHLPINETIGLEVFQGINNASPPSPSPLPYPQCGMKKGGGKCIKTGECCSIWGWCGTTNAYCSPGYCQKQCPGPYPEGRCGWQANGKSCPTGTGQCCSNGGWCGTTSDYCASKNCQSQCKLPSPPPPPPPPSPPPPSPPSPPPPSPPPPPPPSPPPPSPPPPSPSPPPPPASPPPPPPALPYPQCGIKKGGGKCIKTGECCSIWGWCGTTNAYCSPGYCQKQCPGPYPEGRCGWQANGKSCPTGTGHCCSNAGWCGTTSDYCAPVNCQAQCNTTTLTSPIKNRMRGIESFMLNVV", "experiment": "microcapsule retention; G: amine capsules, BS3 one-step, 1 ug VHH/cm2; potato lectin coat 10 ug/ml; 10% coverage"}, "potato lectin (Sigma) [2]": {"molecular_target": "T1, potato lectin (Sigma)", "experiment": "microcapsule retention; C: carboxyl capsules, EDC/Sulfo-NHS, 1 ug VHH/cm2; potato lectin coat 100 ug/ml; 100% coverage"}, "potato lectin (Sigma) [3]": {"molecular_target": "T1, potato lectin (Sigma)", "experiment": "microcapsule retention; D: carboxyl capsules, EDC/Sulfo-NHS, 0.1 ug VHH/cm2; potato lectin coat 100 ug/ml; 100% coverage"}, "potato lectin (Sigma) [4]": {"molecular_target": "T1, potato lectin (Sigma)", "experiment": "microcapsule retention; D: carboxyl capsules, EDC/Sulfo-NHS, 0.1 ug VHH/cm2; potato lectin coat 1 ug/ml; 100% coverage"}, "potato lectin (Sigma) [5]": {"molecular_target": "T1, potato lectin (Sigma)", "experiment": "microcapsule retention; L: amine capsules, BS3 two-step, 0.1 ug VHH/cm2; potato lectin coat 10 ug/ml; 10% coverage"}, "potato lectin (Sigma) [6]": {"molecular_target": "T1, potato lectin (Sigma)", "experiment": "microcapsule retention; H: amine capsules, BS3 one-step, 0.1 ug VHH/cm2; potato lectin coat 1 ug/ml; 10% coverage"}, "potato lectin (Sigma) [7]": {"molecular_target": "T1, potato lectin (Sigma)", "experiment": "microcapsule retention; D: carboxyl capsules, EDC/Sulfo-NHS, 0.1 ug VHH/cm2; potato lectin coat 10 ug/ml; 100% coverage"}, "potato lectin (Sigma) [8]": {"molecular_target": "T1, potato lectin (Sigma)", "experiment": "microcapsule retention; G: amine capsules, BS3 one-step, 1 ug VHH/cm2; potato lectin coat 10 ug/ml; 100% coverage"}, "potato lectin (Sigma) [9]": {"molecular_target": "T1, potato lectin (Sigma)", "experiment": "microcapsule retention; K: amine capsules, BS3 two-step, 1 ug VHH/cm2; potato lectin coat 100 ug/ml; 100% coverage"}, "potato leaf surface": {"system": "potato leaf surface", "experiment": "VHH binding to leaf discs (microscopy)", "parameters": "species or system potato (variety Désirée)", "details": "5 μg/ml in PBS, anti-histidine Alexa-488 detection", "description": "VHH binding to non-fixed leaf discs of potato (variety Désirée), black nightshade, grass, wheat or azalea was investigated. For comparison, binding of CBM3a to non-fixed leaf discs of potato (variety Désirée) was analyzed in parallel. Leaf discs were prepared by punching a fresh potato leaf with a 5 mm belt hole puncher tool. Leaf discs were put immediately in wells of a 96-well plate containing 200 μl per well 5% MPBS or PBS, and incubated for 30 minutes. Leaf discs were transferred to solutions containing 5 μg/ml VHH antibody fragment, respectively 5 μg/ml CBM3a in 2% MPBS or PBS and incubated for 60-90 minutes. Unbound VHH or CBM3a proteins were removed by washing three times with 2% MPBS or PBS. Bound VHH or CBM3a proteins were detected with incubation with monoclonal mouse anti-histidine antibodies directly conjugated with Alexa-488 fluorescent dye (Abd Serotec) in 1% MPBS for 1 hour. Unbound antibodies were removed by washing three times with PBS. Leaf discs were put on glass slides, covered with cover slips, and analyzed by microscopy or on a macrozoom microscope system (Nikon) or a SP5 confocal microscope system (Leica)."}, "unrelated antigens [10]": {"molecular_target": "unrelated antigens", "experiment": "VHH-coupled Uvitex OB microcapsules retained on wells coated with unrelated antigen; 100% surface coverage"}, "potato lectin (Sigma) [11]": {"molecular_target": "T1, potato lectin (Sigma)", "experiment": "VHH-coupled Uvitex microcapsules on potato lectin-coated wells; 25-fold less microcapsules applied", "description": "An ELISA-like assay was performed using high bind half area microplates (Greiner Bio-One) coated with 5 μg/well potato lectin. Control wells included blank wells or wells coated with unrelated antigens. Plates were washed three times with PBS with 0.05%-TWEEN®-20 and blocked with 5% skimmed milk in PBS for 1 to 2 hours. VHH-coupled Uvitex-containing microcapsules were diluted to appropriate densities in 1% skimmed milk in PBS with 0.05%-TWEEN®-20. Five-fold serial dilution series were prepared and allowed to bind to the surface to compare binding of microcapsules coupled with monovalent or bivalent VHH. Microcapsules were added to the antigen-coated or control wells and allowed to bind for 1 hour. Unbound microcapsules were removed by washing five times with PBS with 0.05%-TWEEN®-20. The bottoms of ELISA plate wells were analyzed for bound microcapsules on a macrozoom microscope system (Nikon). Microcapsules were counted using Volocity image analysis software (Perkin Elmer). A DAPI filter was used to visualize Uvitex microcapsules.\nThe surface area of microcapsules with coupled bivalent VHH was 15-fold above the surface area of blank microcapsules applied at this microcapsule density while the surface area of microcapsules with monovalent VHH was only six-fold above the surface area of blank microcapsules applied at this microcapsule density. […]"}, "unrelated antigens [12]": {"molecular_target": "unrelated antigens", "experiment": "VHH-coupled Uvitex microcapsules retained on wells coated with unrelated antigen; 4% surface coverage"}},
  "data": [
    {"molecule": "Control VHH", "values": [
      {"measurement": "microcapsule counts (microcapsules)", "setting": "potato lectin (Sigma) [1]", "value": 13},
      {"measurement": "microcapsule counts (microcapsules)", "setting": "potato lectin (Sigma) [2]", "value": 297},
      {"measurement": "microcapsule counts (microcapsules)", "setting": "potato lectin (Sigma) [3]", "value": 515},
      {"measurement": "microcapsule counts (microcapsules)", "setting": "potato lectin (Sigma) [4]", "value": 227},
      {"measurement": "microcapsule counts (microcapsules)", "setting": "potato lectin (Sigma) [5]", "value": 186},
      {"measurement": "microcapsule counts (microcapsules)", "setting": "potato lectin (Sigma) [6]", "value": 36},
      {"measurement": "microcapsule counts (microcapsules)", "setting": "potato lectin (Sigma) [7]", "value": 475},
      {"measurement": "microcapsule counts (microcapsules)", "setting": "potato lectin (Sigma) [8]", "value": 104},
      {"measurement": "microcapsule counts (microcapsules)", "setting": "potato lectin (Sigma) [9]", "value": 866}
    ]},
    {"molecule": "VHH 3E6 (VHH, also called Monovalent VHH 3E6) VHH: QVQLQESGGGLVQPGGTLSLSCAASGFNVRWYGMGWFRQAPGKEREGVACISALQETTAYADSVKGRFTLSRDNPKNTLSLQMNNLQPEDTGVYYCATTDCDDSSRMTYTSYLGQGTQVTVSS", "values": [
      {"measurement": "binding to native potato leaf surface", "setting": "potato leaf surface", "value": "binding leaf surface, stomata, glandular trichomes, and leaf hairs"},
      {"measurement": "binding to native potato leaf surface", "setting": "potato leaf surface; listed as 3E6", "value": "clearly binding to trichomes, stomata and cuticle"},
      {"measurement": "area of bound microcapsules", "setting": "unrelated antigens [10]", "value": 84.5},
      {"measurement": "fold of surface area above blank microcapsules", "setting": "potato lectin (Sigma) [11]", "value": 6, "unit": "fold"},
      {"measurement": "surface area of bound microcapsules", "setting": "unrelated antigens [12]", "value": 5.01}
    ]}
  ]
}
